Results from the supplement of paper PMC10065799, “High-throughput profiling of sequence recognition by tyrosine kinases and SH2 domains using bacterial peptide display” (eLife, 2023).

What was measured:
c-Src SH2 = assay: SH2 binding enrichment of the phosphorylated peptide, bacterial display (enrichment ratio); higher = better substrate or ligand; peptides without Tyr show the background
SHP2-C SH2 = assay: as above
Grb2 SH2 = Grb2 SH2 (UniProt P62993); assay: as above
Fes = Fes (UniProt P07332); assay: phosphorylation enrichment, bacterial display (enrichment ratio); higher = better substrate or ligand; peptides without Tyr show the background
Hck = Hck (UniProt P08631); assay: as above
Hck, sequence (P08631 whole entry, looked up): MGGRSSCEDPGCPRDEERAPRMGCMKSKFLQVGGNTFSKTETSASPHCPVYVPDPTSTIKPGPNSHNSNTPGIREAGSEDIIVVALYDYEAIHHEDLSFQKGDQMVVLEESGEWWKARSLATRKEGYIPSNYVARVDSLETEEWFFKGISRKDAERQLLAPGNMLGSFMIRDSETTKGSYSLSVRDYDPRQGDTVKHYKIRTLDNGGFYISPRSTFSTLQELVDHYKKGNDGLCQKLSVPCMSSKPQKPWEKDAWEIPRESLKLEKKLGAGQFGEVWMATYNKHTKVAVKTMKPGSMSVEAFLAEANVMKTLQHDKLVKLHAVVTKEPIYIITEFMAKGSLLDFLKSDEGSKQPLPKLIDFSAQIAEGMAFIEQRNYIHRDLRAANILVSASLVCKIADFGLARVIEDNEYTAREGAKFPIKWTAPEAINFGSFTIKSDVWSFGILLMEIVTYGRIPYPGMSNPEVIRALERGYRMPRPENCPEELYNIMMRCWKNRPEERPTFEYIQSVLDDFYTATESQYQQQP

EPHB2 = EPHB2 (UniProt P29323); assay: as above
EPHB2, sequence (P29323 whole entry, looked up): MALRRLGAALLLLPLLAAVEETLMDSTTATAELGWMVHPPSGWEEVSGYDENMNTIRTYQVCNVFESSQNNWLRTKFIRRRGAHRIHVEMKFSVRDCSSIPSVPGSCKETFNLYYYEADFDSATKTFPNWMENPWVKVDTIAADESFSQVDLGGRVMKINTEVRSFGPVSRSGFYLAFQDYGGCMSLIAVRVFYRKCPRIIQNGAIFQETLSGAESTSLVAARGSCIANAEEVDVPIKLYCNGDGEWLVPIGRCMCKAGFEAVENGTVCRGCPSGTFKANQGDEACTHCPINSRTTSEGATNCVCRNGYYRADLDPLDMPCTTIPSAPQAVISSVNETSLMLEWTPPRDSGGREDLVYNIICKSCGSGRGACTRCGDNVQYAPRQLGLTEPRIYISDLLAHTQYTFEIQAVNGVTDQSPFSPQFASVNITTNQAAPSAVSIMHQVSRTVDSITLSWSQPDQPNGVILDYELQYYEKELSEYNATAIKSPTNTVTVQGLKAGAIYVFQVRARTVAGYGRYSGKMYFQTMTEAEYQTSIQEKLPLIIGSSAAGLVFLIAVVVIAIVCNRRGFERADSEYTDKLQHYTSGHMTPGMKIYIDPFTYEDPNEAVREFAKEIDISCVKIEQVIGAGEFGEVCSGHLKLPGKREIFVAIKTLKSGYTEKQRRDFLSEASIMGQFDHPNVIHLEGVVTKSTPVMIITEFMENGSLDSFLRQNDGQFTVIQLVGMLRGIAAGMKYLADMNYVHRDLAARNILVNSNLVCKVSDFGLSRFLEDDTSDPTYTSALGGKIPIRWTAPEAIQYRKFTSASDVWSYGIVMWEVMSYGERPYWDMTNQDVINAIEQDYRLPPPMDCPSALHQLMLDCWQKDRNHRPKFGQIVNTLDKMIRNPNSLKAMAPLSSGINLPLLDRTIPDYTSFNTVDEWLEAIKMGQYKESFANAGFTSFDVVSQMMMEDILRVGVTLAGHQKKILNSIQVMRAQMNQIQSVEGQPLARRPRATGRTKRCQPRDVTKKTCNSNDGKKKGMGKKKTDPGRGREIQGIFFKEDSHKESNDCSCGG

AncSZ = assay: as above
Jak2 = Jak2 (UniProt O60674); assay: as above
Fyn = Fyn (UniProt P06241); assay: as above
Fyn, sequence (P06241 whole entry, looked up): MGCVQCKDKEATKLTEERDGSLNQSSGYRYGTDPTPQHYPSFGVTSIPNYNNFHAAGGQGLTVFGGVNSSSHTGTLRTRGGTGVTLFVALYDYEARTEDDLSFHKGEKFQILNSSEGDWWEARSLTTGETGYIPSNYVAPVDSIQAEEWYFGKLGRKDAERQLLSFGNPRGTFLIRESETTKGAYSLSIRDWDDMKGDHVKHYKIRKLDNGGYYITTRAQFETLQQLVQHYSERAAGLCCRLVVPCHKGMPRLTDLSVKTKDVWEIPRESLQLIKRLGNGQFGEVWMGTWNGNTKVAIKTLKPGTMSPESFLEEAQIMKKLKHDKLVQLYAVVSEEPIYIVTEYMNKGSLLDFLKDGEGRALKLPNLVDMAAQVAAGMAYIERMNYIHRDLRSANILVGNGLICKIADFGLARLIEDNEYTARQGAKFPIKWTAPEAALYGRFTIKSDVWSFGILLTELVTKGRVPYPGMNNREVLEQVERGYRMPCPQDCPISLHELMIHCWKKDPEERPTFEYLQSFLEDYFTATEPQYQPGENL

c-Abl (mouse) = assay: as above
EPHB1 = EPHB1 (UniProt P54762); assay: as above
EPHB1, sequence (P54762 whole entry, looked up): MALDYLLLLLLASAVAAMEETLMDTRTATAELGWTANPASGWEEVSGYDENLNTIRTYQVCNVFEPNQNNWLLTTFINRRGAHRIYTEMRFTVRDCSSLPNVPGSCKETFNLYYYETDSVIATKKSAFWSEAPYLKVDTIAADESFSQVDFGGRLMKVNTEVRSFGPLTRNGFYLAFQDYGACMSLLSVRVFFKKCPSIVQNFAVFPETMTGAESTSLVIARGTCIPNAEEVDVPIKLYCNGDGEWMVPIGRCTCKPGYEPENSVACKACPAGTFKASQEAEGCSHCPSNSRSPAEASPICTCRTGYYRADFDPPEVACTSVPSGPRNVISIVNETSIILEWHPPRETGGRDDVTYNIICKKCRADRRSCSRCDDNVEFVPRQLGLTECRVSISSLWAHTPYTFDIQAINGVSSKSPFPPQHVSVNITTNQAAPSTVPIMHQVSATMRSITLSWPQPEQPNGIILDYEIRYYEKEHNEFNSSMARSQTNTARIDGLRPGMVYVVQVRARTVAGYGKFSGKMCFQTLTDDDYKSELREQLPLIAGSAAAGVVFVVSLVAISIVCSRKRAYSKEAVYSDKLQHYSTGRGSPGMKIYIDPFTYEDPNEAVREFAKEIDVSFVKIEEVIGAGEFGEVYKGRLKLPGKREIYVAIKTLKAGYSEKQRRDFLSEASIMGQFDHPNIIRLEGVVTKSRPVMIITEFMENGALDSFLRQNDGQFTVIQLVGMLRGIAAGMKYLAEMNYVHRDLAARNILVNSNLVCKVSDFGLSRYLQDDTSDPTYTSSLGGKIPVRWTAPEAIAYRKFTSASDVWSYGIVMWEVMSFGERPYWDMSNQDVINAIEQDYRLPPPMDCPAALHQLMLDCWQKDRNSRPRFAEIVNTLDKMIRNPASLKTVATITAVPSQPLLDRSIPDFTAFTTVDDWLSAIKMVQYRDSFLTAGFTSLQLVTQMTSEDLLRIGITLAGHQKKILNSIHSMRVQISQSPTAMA

MERTK = MERTK (UniProt Q12866); assay: as above
c-Src = assay: as above
FGFR1 = FGFR1 (UniProt P11362); assay: as above
FGFR1, sequence (P11362 whole entry, looked up): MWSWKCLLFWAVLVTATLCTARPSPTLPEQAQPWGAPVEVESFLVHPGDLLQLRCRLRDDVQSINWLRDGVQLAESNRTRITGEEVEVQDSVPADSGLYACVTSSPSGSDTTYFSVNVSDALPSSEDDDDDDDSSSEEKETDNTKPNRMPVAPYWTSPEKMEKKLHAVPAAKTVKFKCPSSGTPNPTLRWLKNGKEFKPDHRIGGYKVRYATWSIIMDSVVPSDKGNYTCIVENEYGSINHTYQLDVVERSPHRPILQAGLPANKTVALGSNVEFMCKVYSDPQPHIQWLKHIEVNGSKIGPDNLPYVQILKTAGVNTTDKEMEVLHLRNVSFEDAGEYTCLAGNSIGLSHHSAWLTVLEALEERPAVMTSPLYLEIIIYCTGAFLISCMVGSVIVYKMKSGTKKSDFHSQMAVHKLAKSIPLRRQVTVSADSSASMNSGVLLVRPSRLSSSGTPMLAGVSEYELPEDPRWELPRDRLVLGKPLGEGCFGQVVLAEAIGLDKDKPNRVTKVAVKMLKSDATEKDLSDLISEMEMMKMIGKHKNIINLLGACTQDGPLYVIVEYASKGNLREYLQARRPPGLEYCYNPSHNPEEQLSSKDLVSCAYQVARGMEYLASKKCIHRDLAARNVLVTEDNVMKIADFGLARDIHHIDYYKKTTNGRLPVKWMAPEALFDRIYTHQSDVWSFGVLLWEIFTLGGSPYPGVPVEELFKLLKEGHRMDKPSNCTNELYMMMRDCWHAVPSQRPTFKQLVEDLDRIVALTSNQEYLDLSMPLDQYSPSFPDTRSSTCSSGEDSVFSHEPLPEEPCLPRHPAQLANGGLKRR

Fer (mouse) = assay: as above
FGFR3 = FGFR3 (UniProt P22607); assay: as above
FGFR3, sequence (P22607 whole entry, looked up, the tested form may be a part): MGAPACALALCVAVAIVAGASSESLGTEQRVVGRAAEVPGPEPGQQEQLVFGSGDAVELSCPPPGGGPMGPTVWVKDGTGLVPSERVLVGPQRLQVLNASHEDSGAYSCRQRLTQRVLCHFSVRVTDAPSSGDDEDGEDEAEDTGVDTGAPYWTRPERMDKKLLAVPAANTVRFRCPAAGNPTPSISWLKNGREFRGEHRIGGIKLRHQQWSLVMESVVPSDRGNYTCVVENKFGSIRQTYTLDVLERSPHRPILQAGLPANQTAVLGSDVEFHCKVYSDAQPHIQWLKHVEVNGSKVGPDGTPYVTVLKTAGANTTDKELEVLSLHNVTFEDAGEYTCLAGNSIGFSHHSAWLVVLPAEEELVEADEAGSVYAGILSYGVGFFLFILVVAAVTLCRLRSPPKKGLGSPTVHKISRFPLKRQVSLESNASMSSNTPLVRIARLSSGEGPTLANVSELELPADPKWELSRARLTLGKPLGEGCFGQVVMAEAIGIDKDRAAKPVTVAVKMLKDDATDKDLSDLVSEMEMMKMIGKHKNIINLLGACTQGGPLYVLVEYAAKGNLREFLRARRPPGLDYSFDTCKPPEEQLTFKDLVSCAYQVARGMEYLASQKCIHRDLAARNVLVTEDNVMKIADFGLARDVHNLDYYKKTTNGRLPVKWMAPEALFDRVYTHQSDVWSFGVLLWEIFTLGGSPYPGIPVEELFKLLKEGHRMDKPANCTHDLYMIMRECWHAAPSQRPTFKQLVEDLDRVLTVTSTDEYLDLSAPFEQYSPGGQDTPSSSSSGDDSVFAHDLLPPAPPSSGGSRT
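Throughout, for SH2 binding enrichment of the phosphorylated peptide, bacterial display: peptide library displayed on the E. coli surface as eCPX fusions, selected cells deep-sequenced, score is each peptide's frequency after selection divided by its frequency in the input.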
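Throughout, for phosphorylation enrichment, bacterial display: 11-residue human phosphosite peptides and single-mutation variants displayed on the E. coli surface, counted by deep sequencing, each peptide's frequency after selection divided by its frequency in the unselected input library; frequency after pTyr selection over input frequency; kinase dosed for 20-30% of maximal phosphorylation in three min.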

Grb2 SH2, sequence (P62993 whole entry, looked up): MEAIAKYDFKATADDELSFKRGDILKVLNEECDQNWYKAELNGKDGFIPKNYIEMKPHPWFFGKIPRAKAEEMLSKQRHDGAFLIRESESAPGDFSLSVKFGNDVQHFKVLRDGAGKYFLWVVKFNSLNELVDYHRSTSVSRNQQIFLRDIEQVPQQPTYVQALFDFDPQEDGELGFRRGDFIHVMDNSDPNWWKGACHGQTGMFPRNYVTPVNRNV

Sequence | SH2 binding enrichment (c-Src SH2) | SH2 binding enrichment (SHP2-C SH2) | SH2 binding enrichment (Grb2 SH2) | phosphorylation enrichment (Fes) | phosphorylation enrichment (Hck) | phosphorylation enrichment (EPHB2) | phosphorylation enrichment (AncSZ) | phosphorylation enrichment (Jak2) | phosphorylation enrichment (Fyn) | phosphorylation enrichment (c-Abl (mouse)) | phosphorylation enrichment (EPHB1) | phosphorylation enrichment (MERTK) | phosphorylation enrichment (c-Src) | phosphorylation enrichment (FGFR1) | phosphorylation enrichment (Fer (mouse)) | phosphorylation enrichment (FGFR3)
QMVGMYAFSFM [AVPR2_Y124_S126F_YF] | 0.353 | 0.817 | 0.654 | 1.65 | 1.06 | 3.08 | 1.5 | 1.15 | 1.16 | 0.912 | 1.95 | 5.8 | 1.28 | 0.846 | 3.54 | 1.63
QNKEDYAGLKE [GSTO1_Y139] | 0.803 | 0.902 | 0.69 | 1.6 | 0.82 | 1.29 | 1.34 | 1.24 | 0.919 | 1.37 | 0.494 | 1.09 | 1.01 | 0.893 | 2.22 | 1.73
QNKEDYDGLKE [GSTO1_Y139_A140D] | 0.765 | 0.737 | 1.09 | 1.74 | 0.915 | 1.04 | 1.83 | 1.13 | 0.943 | 1.19 | 1.02 | 0.666 | 0.641 | 0.867 | 0.754 | 1.3
QNTGDYCDLYG [PTPN11_Y62_Y63C] | 1.22 | 1.13 | 1.11 | 1.08 | 2.08 | 7.83 | 2.75 | 1.35 | 1.49 | 1.34 | 9.03 | 0.633 | 1.84 | 5.87 | 1.39 | 4.13
QNWELYSEGLG [CNKSR1_Y665_R662W] | 0.628 | 0.771 | 0.958 | 1.07 | 4.32 | 5.04 | 1.37 | 1.13 | 3.04 | 0.751 | 5.52 | 2.26 | 2.08 | 0.744 | 0.869 | 0.746
QPGTDYKIYLY [FN1_Y1970] | 0.466 | 0.753 | 0.741 | 1.55 | 0.86 | 0.759 | 1.74 | 1.69 | 0.715 | 1.04 | 0.939 | 0.501 | 0.804 | 0.705 | 0.792 | 0.846
QQLDEYQKLLD [LMNA_Y359_E361K] | 0.699 | 0.724 | 0.708 | 1.85 | 0.742 | 1.28 | 1.53 | 1.72 | 0.724 | 1.03 | 1.27 | 0.81 | 0.642 | 0.65 | 0.905 | 1.2
QQTFTYDSGIH [JUP_Y22_YF] | 0.563 | 0.809 | 0.673 | 1.78 | 1.85 | 1.33 | 1.8 | 0.985 | 1.18 | 0.999 | 1.35 | 0.793 | 0.95 | 0.984 | 0.896 | 1.42
QRCFVYFFSFL [PTEN_Y176_R173C_YF] | 1.09 | 1.27 | 2 | 2.21 | 0.65 | 0.526 | 1.48 | 2.19 | 1.47 | 1.3 | 1.13 | 0.69 | 1.48 | 0.765 | 1.06 | 1.16
QRIHNYYEHRY [HCN4_Y554_D553N] | 1.7 | 2.06 | 1.71 | 1.63 | 1.33 | 2.88 | 1.36 | 0.724 | 0.68 | 0.791 | 2.91 | 1.62 | 0.769 | 3.79 | 0.65 | 3.62
QRPFVYFFSFL [PTEN_Y176_R173P_YF] | 0.783 | 1.13 | 1.29 | 1.54 | 0.426 | 0.703 | 1.23 | 1.33 | 0.721 | 0.967 | 0.783 | 0.664 | 0.748 | 0.789 | 0.707 | 1.39
QSKGIYFVQLE [MGAT4B_Y262_YF] | 0.658 | 0.854 | 0.96 | 1.71 | 0.936 | 2.44 | 1.51 | 1.88 | 1.1 | 1.63 | 0.972 | 2.38 | 1.54 | 1.09 | 0.713 | 1.41
QYKGKYLAKHN [CASK_Y712_D710G] | 1.06 | 0.792 | 1.42 | 0.979 | 0.752 | 0.699 | 0.984 | 0.472 | 0.658 | 0.934 | 0.705 | 0.835 | 0.519 | 1.01 | 0.819 | 1.29
RAFRRYLLKQK [SCN2A_Y1919_YF] | 0.454 | 0.44 | 0.829 | 0.703 | 0.63 | 0.61 | 0.708 | 0.712 | 0.696 | 0.531 | 0.535 | 0.971 | 0.671 | 0.617 | 0.675 | 0.865
RAILNYIASKF [GSTA3_Y74_YF] | 0.461 | 0.611 | 0.927 | 1.73 | 0.854 | 0.86 | 1.84 | 1.29 | 0.66 | 1.96 | 0.534 | 1.7 | 1 | 1.08 | 0.994 | 0.861
RAKLFYQEVPA [METTL11B_Y76] | 0.992 | 0.789 | 0.651 | 1.02 | 1.67 | 1.9 | 1.95 | 0.547 | 0.716 | 0.513 | 2.91 | 6.6 | 0.385 | 2.88 | 1.64 | 2.39
RALCHYFKLNI [ETV6_Y401_R399C_YF] | 1.5 | 2.22 | 1.34 | 1.37 | 0.776 | 0.885 | 1.33 | 1.27 | 0.54 | 1.09 | 0.691 | 0.634 | 0.667 | 0.783 | 0.719 | 0.975
